Measured values as given in publication doi:10.1101/2020.02.08.939488.

Molecular target: rabbit reticulocyte lysate 60S ribosomal subunit, purified (rabbit) (UniProt G1SV32)
Assay: co-sedimentation

Ebp1 concentration at saturated binding (100 nM 60S): 200 nM | Kd: 124 nM
Substance: recombinant full-length Ebp1 with a N-terminal histidine tag (Ebp1-His) (from UniProt P50580 1-394) (natural protein)
